# Laboratory results taken from the DeepSol protein solubility set.
# Experiment: soluble on expression in E. coli; label from the status in PepcDB or PDB records
row,Sequence,soluble on expression in E. coli
1,MAHHHHHHMHIGLAAAVPSPTTAPQWLQDIENQLLIRNAIELKPSQSIFDSYTTLHVSVLHLQTVEDERQRLRMERSRLTERVRELEQAAANSSLQTSYERELEAKKDALQDQLRVYMQRESDYYKALSEVKAVQEERDMLRLRSNKLDAELEQRTAELQLLHKEYTALRDEYDRVRLTVSEADRYLREVKTAKEKTVQLQHRIVTLEDEVNMLRRQLQEALKGETAAAVDKAKRANPNKDGEDAEVAPSPMHTTHSPHTDPCTTLSPNPLGAEPSHASMVISEAHTSSTLHGLCVLDDGKRFLTSGADKHIRLWNRQSPQAEKYFSSSSIALALDTSSHYLLAGCADHVVRFWDVNSLRVLEMTGHTEKVVAACLSSSAQHAFTASSDSTIKLWDVRRRESLRTLLCQSTCNDVTVAGDTVFSAHYNGKITVWDRRTATRSGEVVAHQRVATCVRVSANGQLCVSMGKDNVISVRDARVFTKTLFSVAPVQLVVMMNWARLSIAPSGQLCAVGSGRTSDLLLIRLHGGGQGDAEATDSASSPALVKVLKACVSNATSYGDQGSGSSKGPIFSTAWGASEGGPLVSISNDRCVQVWE,not soluble
2,RTQFKINSIPTVSDPYHINYDLTFSLNFASNKRNTYGTGWLIDWKGDENNPEKNDPFKVYLATNLHVIDALRNNNDYEPYNKDSNNQAFNSEEITRFFSIGKYTYPSIFSELNFIINAREAFVSIQTSTIPKTAYAAVNFVETQGEDESYTDSLSTDNKRDIYADFAVI,not soluble
3,MSFRETFLNNKFKFACRDSFLIEYYLEECYMSKKIINVVAAAIEKDGKIFCAQRPEGKSLGGYWEFPGGKLKEGESPEEALIREIYEELNSKIEIISFVNEASYDYDFGTVVMKTFHAKLVCGNLDLLEHQDSVWLEPSRLKTLNWAPVDRPAVELLSKEGHHHHHH,soluble
4,MSLAGKKIVLGVSGGIAAYKTPELVRRLRDRGADVRVAMTEAAKAFITPLSLQAVSGYPVSDSLLDPAAEAAMGHIELGKWADLVILAPATADLIARVAAGMANDLVSTICLATPAPVAVLPAMNQQMYRAAATQHNLEVLASRGLLIWGPDSGSQACGDIGPGRMLDPLTIVDMAVAHFSPVNDLKHLNIMITAGPTREPLDPVRYISNHSSGKMGFAIAAAAARRGANVTLVSGPVSLPTPPFVKRVDVMTALEMEAAVNASVQQQNIFIGCAAVADYRAATVAPEKIKKQATQGDELTIKMVKNPDIVAGVAALKDHRPYVVGFAAETNNVEEYARQKRIRKNLDLICANDVSQPTQGFNSDNNALHLFWQDGDKVLPLERKELLGQLLLDEIVTRYDEKNRR,soluble
5,MSSLMCHGGGLPEVRVARPSGRAERIAALGELCRAGSIVHIGEAARQIGASEITIRRDLSVGAGGLVCLGGYVMRASEGAEGYSLTAAEASEAGAKEALAVRAAALIEPGDTVFLDCGTTTPYLAARVPQNARVTVVTQALNIAETVARLTGVNLILLAGIYHPETASFSSEEAVAMLGRINITKGFFSAAGVHETEGVTCFHFHEVPVKRAALARSRQPYLVCDGSKWGRLRPATYARLEEFEGWIGAPDRAALEHHHHHH,not soluble
6,KRVFGFVSAKGGDGGSCIAANFAFALSQEPDIHVLAVDISLPFGDLDMYLSGNTHSQDLADISNASDRLDKSLLDTMVQHISPSLDLIPSPATFEKIVNIEPERVSDLIHIAASFYDYIIVDFGASIDHVGVWVLEHLDELCIVTTPSLQSLRRAGQLLKLCKEFEKPISRIEIILNRADTNSRITSDEIEKVIGRPISKRIPQDEDAMQESLLSGQSVLKVAPKSQLSKTIVDWALHLNGVSRPNKRSIWERLKIK,soluble
7,MWHSIEQAISVETGKSFYISEKKEISTRPASSSSFTCSYDNKEPPPNLSFKITDGHRSYFLKINNKDYLENFQAEAYSLKQLNSLANIASPNVTAIGTSLDKSFLVLDYIDFSKAKPMLWYQLGQQLAQMHYENRHGQFGWQHDNFIGSTIQPNHWSSNWTTFFSDQRIAWQLQLLSERSIMLGNIEHITQVCHDALLHHQVSPCLVHGDLWQGNTGFSGEKAMIFDPACYYGDREVDIAMTELFGHFPDDFYHGYQAEYPLDDGYEQRKLVYNFYHILNHANIFGGIYIDQAKATLSRIMSLPLHLEHHHHHH,not soluble
8,SSTKVPIYLKRGSRKGKKEKLRDLLSSDMISPPLGDFRHTIHIGSGGGDDMFGDISFLQGKFHLLPGTAVEEAEEDGSFDLPFQFTRTTTVCGRELPDGLSPLLKNAISLPVIGGPQALTLPTAQAPPKPPRLHLESPQPSPQPSPQGAGNVDVWRIPEAGSPHNGMSPEPEAEEPFLSHASSLLSLHVDLGPSILDDVLQIMDHDLGRVQIPT,soluble
